# Test results published in the nanobody polyreactivity screen of Harvey et al. (2022).
# Assay: yeast display, Sf9 membrane polyspecificity reagent, FACS + sequencing; frameworks hold sequencing errors
# How it was run: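 Nanobodies from a synthetic yeast display library (Saccharomyces cerevisiae BJ5465), induced 36–48 hours with galactose, were stained 1 hour at 4 °C with 10% biotinylated, detergent-solubilized Sf9 membrane reagent, enriched on streptavidin microbeads, then FACS-sorted. Anti-HA (expression) and streptavidin (reagent binding) fluorescence set low and high (top ~1%) gates. Polyreactivity labels come from the gate of origin. Genes were colony-PCR amplified, MiSeq 2 × 250 sequenced and filtered by CDR length.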
row,Sequence,polyreactivity (PSR sort gate)
1,KGQLVESGGGLVQAGGSLRLSCAASGSIFGENAMGWYRQAPGKERELVAAITSSGSTYYADSVKGRFTISRANAKNTVYLQMNSLKPEDTAVYYCAKVSVLRMDYWGQGTQVTVSS,low polyreactivity
2,QVQLVESGGGLVQAGGSLRLSCAASGSTFSRNAMGWYRQAPGKERELVAAITRSGGSTYYADSVKGRFTISRDNAKNTVYLQMNSLKPEDTAVYYCAVAVPRGVYLYDYWGQGTQVTVSS,low polyreactivity
3,QVQLVESGGGLVQAGGSLRLSCAASGSIFHDYAMGWYRQEHGKERELVAVISTSGGSTYYADSVKGRFTISRDNAKNTDYLQMNSLKPEYTAVYYCNARTVGPYPSQAALEYDSGGQGTQVTVSS,low polyreactivity
4,QVQLVESGGGLVQAGGSLRLSCAASGYILRNAMGWYRQAPGKERELVAAIRFRGGSTSYADSVKGRFTISRYNAKNTVYLQMKSLKPEDTAVYYCNALWWVIRPYQRHDYWGQVTQVTVSS,low polyreactivity
5,QVQLVESGGGLVQAGGSLRLSCAASGFTLGFNAMGWYRQAPGKERELVATISSSGGSTHYADSVKGRFTISRDNAKNTVYLQMNSLKPEDTAVYYCARDDSDRIWLEQSGYWGQGTQVTVSS,low polyreactivity
6,QVQLVESGGGLVQAGGSLRLSCAASGSIFLIYAMGSYRQAPGKERELVATINRGDNTYYADSVKGRFTISRDNAKNTVYLQMNSLKPEDTAVYYCAADVPWGWWDSDFSDNYYWGQGTQVTVSS,low polyreactivity
7,QVQLVESGGGLVQAGGSLRLSCAASGITLPVYGKGWYRQAPGKERELVAVIDIVGITNYADSVKGRFTISRDNAKNTVYLQMNSLKPEDTAVYYCAKRYVYIADGGEYYYWGQGTQVTVSS,low polyreactivity
8,QGQLVESGGGLVQAGGSLRLSCAASGRTFKYYAMGWYRQAPGQERELVAAISYNGGSTFYADSVKGRFTISRDNAKNTVYLQMNSLKPEDTAVYYCAAVYRYRNRRDYDYWGQGTQVTVSS,high polyreactivity
9,QVQLVESGGGLVQAGGSLRLSCAASGRIFENNAMGWYRQAPGKERELVAAITSGGSTYYADSVKGRFTISRDNAKNTVYLQMNSLKPEDTAVYYCNVTFRVDPWTRTGYDYWGQGTQVTVSS,high polyreactivity
10,QDQLVESGGGLVQAGGSLRLSCAASGSIFDPYTMGWYRQAPGKERELVAAINWSGGSTSYADSVKGRFTISRDNAKNPVYLQMNSLKPEDTAVYYCNADPHGYYGYGYDYWGQGTQVTVSS,low polyreactivity
11,QVQLVESGGGLVQAGGSLRLSCAASGFTFDTNAMGWYRPAPGKERELVAAISRIGGRTYADSVKGRFTISRDNAKNTVYLQMNSLKPEDTAVYYCAADTTWYPYGYDSWGQGTQVTVSS,low polyreactivity
12,QVQLVESGGGLVQAGGSLRLSFAPSGRTIDPNAMGWYRQAPGKERELVAAITRTGVRKYYADSVKGRFTISRDNAKNTVYLQMNSLKPEDTAVYYCAASYSGRQDRYPHYDYWGQGTQVTVSS,low polyreactivity
13,QVHLVESGGGLVQAGGSLRLSCAASGRIFGEYAMGWYRQAPGKERELVAAISYRGGRTYYADSVKGRFTISRDNAKNTVYLQMNSLKPEDTAVYYCAKTNRDEYDYWGQGTQVTVSS,high polyreactivity
14,QVQLVESGGGLVQAGGSLRLSCAASGNIFSRYAMGWYRQAPGKERELVAAISSSGGTTYYADSVKGRFTISRDNAKNTVYLHMNSLKPEDTAVYYCNARRRQIYSEFGYWGQGTQVTVSS,high polyreactivity
15,QVHLVESGGGLVQAGGSLRLSCAASGFTFYRYAMGWYRQAPGKERELVAAISRRGVSTDYADSVKGRFTISRDNAKNTVYLQMNSLKPEDTAVYYCAASYSRGVGKFGYWGQGSQVTVSS,high polyreactivity
16,QVQLVESGVGLVQAGGSLRLSCAASGSTFEVHSMGWYRQAPGKERELVATITRSGGSTYYADSVKGRFTISRDNGKNTVYLQMNSLKPEDTAVYYCNALWELKWGQGTQVTVSS,low polyreactivity
17,QVQLVESGGGLVQAGGSLRLSCADSGRTFKSYAMGWYRQAPGKERELVAAISSSGGRTFYADSVKGRFTISRDNAKNTVYLQMNSLKPEDTAVYYCNARGFYRGYTYYYWGQGTQVTVSS,high polyreactivity
18,QVQLVESGGGLVQAGGSLRLSCAASGTYKYYAMGWYRHAPGKERELVAATNRGGSTNYADSVKGRFTISRDNAKNTVYLQMNSLKPEDTAVYYCAAERWYVRGRHYYYWGQGTQVTVSS,high polyreactivity
19,QGQLVESGGGLVQAGGSLRLSCDASGSTFFENTMGWYRQAHGQERELVAAITSGGGRPYYADSVKGRFTISRDNAKNTVYLQLNSLKPEETAVYYCAARARYTRRGRHYDYWGQGTQVTVSS,high polyreactivity
20,QVQLVESGGGLVQAGGSLRLSCAASGITSDQNAMGWYRQAPGKERELVAAITRGGTTYYADSVKGRFTISRDNAKNTVYLQMNSLKPEDTAVYYCNARYYFRKQVRPFHIRYDYWGQGTQVTVSS,low polyreactivity
21,QVLLVESGGGLVQAGGSLRLSCAASGSTFFFNAMGSSRQAPGKEWELVATISRDGSTNYADSVKGRFTISRDNAKNTVYLQMNSLKPEDTAVYYCAAGWGWPYHQYDYWGQGTQVTVSS,low polyreactivity

row,Sequence,polyreactivity (PSR sort gate)
1,QVQLVESGGGLVQAGGSLRLSCAASGSTIDTYAMGWYRQAPGKERELVAGISWSGGSTFYADSVKGRFTISRDNAKNTVYLQMNSLKPEDTAVYYCAKQLWVGVKYDYWGQGTQVTVSS,low polyreactivity
2,QVQLVESGGGLVQAGGSLRLSCAASGRTFIGNAMGWSRQAPGKERELVAGIDSDGSTNYADSVKGRFTISRDNAKNTVYLQMNSLKPEDTAVYYCAAVQGYRFYEYYYWGQGTQVTVSS,low polyreactivity
3,QVQLVESGGGLVQAGGSLRLSCAASGYIFVTNAMGWYRQAPGKERELVAAISYRGGSTSYADSVKGRFTISRDNAMNTVYLQMNSLKPEDTAVYYCNAVTFPLGYLRFYYWGQGTQVTVSS,low polyreactivity
4,QVQHVESGGGLVQAGGSLRLSCAASGRIFSRYAMGWYRQAPGKERELVAAITSGGSTYYADSVKGRFTISRDNAKNTVYLQMNSLKPEDTAVSYCATRYRFGSYHSIYDYWGQGTQVTVSS,high polyreactivity
5,QVQLVESGGGLVQAGGSLRLSCAASGSIFWSYDMGWYRQAPGKERELVATITSGDSTYYADSVKGRFTISRDNAKNTVYLQMNSLKPEDTAVYYCNVDVSVEVAYWGQGTQVTVSS,low polyreactivity
6,QVQLVESGGGLVQAGGSLRLSCAASGSTSWLNAMGWYRQATGKERELVAAISVNTGSTYYADSVKGRFTISRDNAKNTVYLQMNSLKPEDTAVYYCAARGRGHGTTPNDYWGQGTQVTVSS,high polyreactivity
7,QVQLVESGGGLVQAGGSLRLSCAASGSIFGTNTMGWYRQAPGKERELVAAIRLSDSSTYYADSVKGRFTISRDNAKNSFYLQMNSLKPVDTAVYYCAVDYRAYHYYRYDYWGQGTQVTVSS,low polyreactivity
8,QVQLVESGGGLVQAGGSLRLICAASGRIFDGYAMGWYRQAPGKERELVAAISSDGGSTNYADSVKGRFTISRDNAKNTVYLQMNSLKPEDTAVYYCAESRLGEYLGYDYWGQGTQVTVSS,low polyreactivity
9,QVQLVESGGGLVQAGGSLRLSCAASGIIFDYTAMGWYRQAPGKERELVAAITSTDNTNYADSVKGRFTISRDNAKNTVYLQMNSLKPEDTAVYYCNTDYWLSVVYAMDYWGQGTQVTVSS,low polyreactivity
10,QVQLVESGVGLVQAGGSLRLTCAASGSIFGRKAMGWYRKATGKERELVAAIRTRGGSTYYADSVKGRFTISRDNAKNTLYLQMNSLKPEDTAVFFCAAPGGGKVVDYWGQGTHVTVSS,low polyreactivity
11,QDQLVETGGGLVQAGGSLRLSCSASGSIFAAYTMGWYRQAPGKECELVATISSGGSTYYADSVKGRFTISRDNAKNTVYLQMNSLKPEDTAVYYCAAVAYTYTEYEYWGQGTQVTVSS,low polyreactivity
12,QVQIVESGGGLVQAGGSLRLSCAASGSIFRYYALGWYRQAPGKERELVAAISSGTITNYADSVKGRFTISRDNAKNTVYLQMNSLKPEDTAVYYCAADTWYLGYPDYWLDYWGQGTQVTVSS,low polyreactivity
13,QVQLVESGGGLVQAGVSLRLSCAASGFISDWYAMGWYRQAPGNERELVATLDWIGGSTYADSVKGRFTISRDNAKNTVYFQMNSLKPEDTAVYYCAADSFFIAWYGAHYAYDDWGQGTQVTVSS,low polyreactivity
14,QVQLVESGGGLVQAGGSLRLSCAASGITFYYNAMGWYRQAPGKERELVAAIRSAGSTYYADSVKGRFTISRDNAKNSVYVQMNSLKPEDTAVDYWGQGTQVTVSS,low polyreactivity
15,QVQLVESGGGLVQAGGSLRLSCAASGLIFWLNAMGWYRQAPGKERELVAAISSSGGRTYYADSVKGRFTISRDNAKNTVYLQMNSLKPEDTAVYYCNRGQQGRGWWGYDYWGHGTQVTVSS,high polyreactivity
16,QVQLVESGGGLVQAGGSLRLSCAASGRIFGTNARVWYRQAPGKERELVADITSGGSTNYADSVKGRFTISRDNAKNTVYLQMNSLKPEDTAVYYCAADVIGDLRWYRDEYWGQGTQVTVSS,low polyreactivity
17,QVQLVESGGGLVQAGGSLLLSCAASGITFKWNDMGWYRQAPGKEREFVAAITGSTGSTFYADSVKGRFTISRDNAKNSVYLQMNSLNTEDTAVYYCAAGPWFYYWGQGTQVTVSS,low polyreactivity
18,QVQLVESGGGLVQAGGSLGLSCAASGSNFHSYAMGWYRQAPGKERELVGAISWCGGSTNYSDSVKGRFTISRDNAKNTVYLQMNSLKPEDTAVYYCAAKEFGSDEYKTGSGYDYWGQCTQVTVSS,low polyreactivity
19,QVQLVESGGGLVQAGGSLRLSCAASGRIFRTYAMGWYRPAPGKERELVAAISGSGGRTYYADSVKGRFTISRDNAKNTVYLQMNSLKPEDTAVYYCANYVSIVRYGSTTNYDYWGQGTQVTVSS,high polyreactivity
20,QVQLVESGGGLVQAGVSLRLSCAASGITFVNNDMGWYRQAPGKERELVAAISSSGGSTYYADSVKGRFTISRDNAKNTDYLQMNSLKPEDTAVYYCAAPWYNAGRFRYYYWGQGTQVTVSS,high polyreactivity
